# Assay results taken from IntAct's records for PubMed 15563508.
# B1: Carbonic anhydrase 4 (Homo sapiens), P22748 (parent)
# chain: MRMLLALLALSAARPSASAESHWCYEVQAESSNYPCLVPVKWGGNCQKDRQSPINIVTTKAKVDKKLGRFFFSGYDKKQTWTVQNNGHSVMMLLENKASISGGGLPAPYQAKQLHLHWSDLPYKGSEHSLDGEHFAMEMHIVHEKEKGTSRNVKEAQDPEDEIAVLAFLVEAGTQVNEGFQPLVEALSNIPKPEMSTTMAESSLLDLLPKEEKLRHYFRYLGSLTTPTCDEKVVWTVFREPIQLHREQILAFSQKLYYDKEQTVSMKDNVRPLQQLGQRTVIKSGAPGRPLPWALPALLGPMLACLLAGFLR
# partner: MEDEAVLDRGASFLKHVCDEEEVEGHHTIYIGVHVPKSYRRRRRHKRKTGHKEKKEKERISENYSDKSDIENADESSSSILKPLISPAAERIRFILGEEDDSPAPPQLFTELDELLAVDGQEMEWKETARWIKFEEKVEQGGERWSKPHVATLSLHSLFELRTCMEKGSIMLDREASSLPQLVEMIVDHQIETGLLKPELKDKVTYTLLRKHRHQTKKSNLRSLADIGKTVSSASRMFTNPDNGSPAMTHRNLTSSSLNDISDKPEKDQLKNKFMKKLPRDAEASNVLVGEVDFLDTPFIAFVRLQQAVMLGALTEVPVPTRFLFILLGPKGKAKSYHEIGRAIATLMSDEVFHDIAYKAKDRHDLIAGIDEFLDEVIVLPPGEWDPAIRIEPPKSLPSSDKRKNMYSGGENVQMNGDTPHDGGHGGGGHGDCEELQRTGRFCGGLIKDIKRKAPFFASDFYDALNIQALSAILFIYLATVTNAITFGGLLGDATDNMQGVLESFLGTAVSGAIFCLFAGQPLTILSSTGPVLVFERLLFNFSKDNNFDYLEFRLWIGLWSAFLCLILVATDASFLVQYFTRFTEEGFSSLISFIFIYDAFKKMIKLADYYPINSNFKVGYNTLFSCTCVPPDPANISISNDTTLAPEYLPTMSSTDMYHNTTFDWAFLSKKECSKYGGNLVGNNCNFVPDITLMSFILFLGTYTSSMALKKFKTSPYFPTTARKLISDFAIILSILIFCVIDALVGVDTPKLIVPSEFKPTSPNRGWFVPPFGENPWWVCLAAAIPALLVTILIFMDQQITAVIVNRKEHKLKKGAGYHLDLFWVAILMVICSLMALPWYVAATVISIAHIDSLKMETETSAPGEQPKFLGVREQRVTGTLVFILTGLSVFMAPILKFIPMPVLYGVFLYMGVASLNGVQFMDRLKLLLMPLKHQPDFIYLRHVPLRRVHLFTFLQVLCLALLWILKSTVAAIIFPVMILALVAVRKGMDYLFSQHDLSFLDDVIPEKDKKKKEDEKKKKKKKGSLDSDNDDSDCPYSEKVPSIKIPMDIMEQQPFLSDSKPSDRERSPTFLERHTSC
# Variants of: B1
# Conditions: with s4a4_human SLC4A4, Q9Y6R1
row,effect of a mutation on the interaction,Variant
1,decreasing interaction,MRMLLALLALSAAWPSASAESHWCYEVQAESSNYPCLVPVKWGGNCQKDRQSPINIVTTKAKVDKKLGRFFFSGYDKKQTWTVQNNGHSVMMLLENKASISGGGLPAPYQAKQLHLHWSDLPYKGSEHSLDGEHFAMEMHIVHEKEKGTSRNVKEAQDPEDEIAVLAFLVEAGTQVNEGFQPLVEALSNIPKPEMSTTMAESSLLDLLPKEEKLRHYFRYLGSLTTPTCDEKVVWTVFREPIQLHREQILAFSQKLYYDKEQTVSMKDNVRPLQQLGQRTVIKSGAPGRPLPWALPALLGPMLACLLAGFLR [R14W]
